“And” between values parts separate entries of the source, which are not always exact repeats. Equal values may be shown once. Read-outs that look alike come from different tables or passages of the source.
How the values were obtained:
[1] = target: Recombinant human IL-17A (human) (UniProt Q16552); assay: SPR
[2] = target: Recombinant human IL-17A (human) (UniProt Q16552); assay: SPR; remark: listed apart in the source
[3] = target: Recombinant human IL-17A (human) (UniProt Q16552); assay: SPR, IL-17A immobilised, Fab as analyte
[4] = target: Recombinant human IL-17A (human) (UniProt Q16552); assay: SPR; remark: listed apart in the source
[5] = target: CR8071 lambda light chain E124Q_T131R (L1 of designs 3971, 3972 and 3987, system C); assay: SMCA: H1, L1, H2, L2 co-expressed, protein A, LC-MS
[6] = target: CR8071 lambda light chain L1 E124Q_T131R (designs 3971 and 3972, System C); assay: as above
[7] = target: CR8071 lambda light chain L1 with E124Q_T131K; assay: SMCA System C: four chains co-expressed, protein A, LC-MS
[8] = target: Pertuzumab kappa light chain S131K_L135K; assay: LCCA, SPR tag read-out
[9] = target: Pertuzumab kappa light chain S131R_V133G_S176R_T178A (L2), HA-tagged; assay: LCCA, SPR of light-chain tags
[10] = target: Pertuzumab kappa light chain S131K_V133G_S176R_T178A (L2), HA-tagged; assay: LCCA, SPR of light-chain tags
[11] = target: Pertuzumab kappa light chain S131R_V133G_S176R_T178A (L2), HA-tagged; assay: LCCA, SPR of light-chain tags; remark: listed apart in the source
[12] = target: Pertuzumab kappa light chain V133A_S176K_T178A (L2), HA-tagged; assay: LCCA, SPR of light-chain tags
[13] = target: Pertuzumab kappa light chain V133G_S176R_T178A (L2), HA-tagged; assay: LCCA, SPR of light-chain tags
[14] = target: Pertuzumab kappa light chain V133A_S176K_T178A (L2), HA-tagged; assay: LCCA, SPR of light-chain tags; remark: listed apart in the source
[15] = target: Pertuzumab kappa light chain V133G_S176R_T178A (L2), HA-tagged; assay: LCCA, SPR of light-chain tags; remark: listed apart in the source
[16] = target: Pertuzumab kappa light chain Q124E_V133D_L135A; assay: LCCA, SPR tag read-out
[17] = target: Pertuzumab kappa light chain L135A (L2), N-terminal HA tag; assay: LCCA, SPR of light chain tags
[18] = target: Pertuzumab kappa light chain L135A (L2), N-terminal HA tag; assay: LCCA, SPR of light chain tags; remark: listed apart in the source
[19] = target: Pertuzumab kappa light chain, wild type (L2), N-terminal HA tag; assay: LCCA, SPR of light chain tags
[20] = target: CAT-2200 lambda light chain T116F_S176F (L1), N-terminal FLAG tag; assay: LCCA, SPR of light chain tags
[21] = target: Pertuzumab kappa light chain T178F (L2), N-terminal HA tag; assay: LCCA, SPR of light chain tags
[22] = target: Pertuzumab kappa light chain Q124E_V133D (L2), N-terminal HA tag; assay: LCCA, SPR of light chain tags
[23] = target: Pertuzumab kappa light chain Q124E_V133D (L2), N-terminal HA tag; assay: LCCA, SPR of light chain tags; remark: listed apart in the source
[24] = target: Pertuzumab kappa light chain Q124E_V133D (L2), N-terminal HA tag; assay: LCCA, SPR of light chain tags; remark: listed apart in the source
[25] = target: CAT-2200 lambda light chain S176K_Y178K (L1), N-terminal FLAG tag; assay: LCCA, SPR of light chain tags
[26] = target: CAT-2200 lambda light chain S176K_Y178R (L1), N-terminal FLAG tag; assay: LCCA, SPR of light chain tags
[27] = target: Pertuzumab kappa light chain Q124E_Q160E_T180E (L2), N-terminal HA tag; assay: LCCA, SPR of light chain tags
[28] = target: Pertuzumab kappa light chain Q124E_Q160E_T180E (L2), N-terminal HA tag; assay: LCCA, SPR of light chain tags; remark: listed apart in the source
[29] = target: Pertuzumab kappa light chain Q124E_Q160E_T180E (L2), N-terminal HA tag; assay: LCCA, SPR of light chain tags; remark: listed apart in the source
[30] = target: CAT-2200 lambda light chain S176K_Y178L (L1), N-terminal FLAG tag; assay: LCCA, SPR of light chain tags
[31] = target: Pertuzumab kappa light chain S176V (L2), N-terminal HA tag; assay: LCCA, SPR of light chain tags
[32] = target: Recombinant HER2 protein (HER2-ECD) (UniProt P04626); assay: SPR, ProteOn XPR36
[33] = target: Recombinant HER2 protein (HER2-ECD) (UniProt P04626); assay: SPR as for KD
[34] = target: Recombinant HER2 protein (HER2-ECD) (UniProt P04626); assay: SPR, Fab captured via anti-penta-His, HER2 as analyte
[35] = target: Recombinant HER2 protein (HER2-ECD) (UniProt P04626); assay: SPR

CAT-2200 Fab heterodimer (H1L1) with H1 S188K and L1 S176D_Y178E
Kd [1]: 0.37 nM | Change in KD of H1L1 Fab vs wild type [2]: -0.13 | Change in KD of H1L1 Fab vs wild type, -(log(KD design)-log(KD wt)) [2]: -0.13 | Kd [2]: 0.37 nM

CAT-2200 Fab heterodimer (H1L1) with H1 S188K and L1 S176E_Y178E
Kd [1]: 0.36 nM | Change in KD of H1L1 Fab vs wild type [2]: -0.12

CAT-2200 Fab heterodimer (H1L1) with H1 V177I_S188K and L1 V133I_S176D_Y178E
Kd [1]: 0.23 nM | Change in KD of H1L1 Fab vs wild type [2]: 0.08

CAT-2200 designed Fab heterodimer H1L1: H1 L143E_K145T_Q179E / L1 E124Q_T131R
Kd [3]: 0.29 nM | Change in KD of H1L1 Fab vs wild type [2]: -0.14

CAT-2200 designed Fab heterodimer H1L1: H1 L143K / L1 K129T_V133D
Kd [3]: 0.26 nM | Change in KD of H1L1 Fab vs wild type [2]: -0.09

CAT-2200 designed Fab heterodimer H1L1: H1 Q179K / L1 K129T_S180E
Kd [3]: 0.24 nM | Change in KD of H1L1 Fab vs wild type [2]: -0.056

CAT-2200 designed Fab heterodimer H1L1: H1 S186R / L1 K129T_S180E
Kd [3]: 0.26 nM | Change in KD of H1L1 Fab vs wild type [2]: -0.088

CAT-2200 wild type one-armed antibody (OAA), FLAG-tagged light chain
Kd [2]: 0.375 nM | Kd [4]: 0.366 nM

CAT-2200 wild type one-armed antibody (OAA), HA-tagged light chain
Kd [2]: 0.373 nM | Kd [4]: 0.35 nM

CAT-2200 wild type one-armed antibody (OAA), no tags
Kd [2]: 0.282 nM | Kd [4]: 0.287 nM

CR8071 heavy chain A139W_L143D_K145T (H1 of designs 3972 and 3987, system C)
% H1L1 Pairing [5]: 92.8% and 99.2% | Change in % H1L1 Pairing with respect to wild type [5]: 44.4% and 50.8%

CR8071 heavy chain H1 A139W_L143D_K145T (design 3972, System C)
% H1L1 Pairing [6]: 92.8% | Change in % H1L1 Pairing with respect to wild type [6]: 44.4%

CR8071 heavy chain H1 L143D_K145T (design 3971, System C)
% H1L1 Pairing [6]: 89% | Change in % H1L1 Pairing with respect to wild type [6]: 40.6%

CR8071 heavy chain H1 with L143D_K145T
% H1L1 Pairing [7]: 79.7% | Change in % H1L1 Pairing with respect to wild type [7]: 11.6%

CR8071 heavy chain H1 with L143E_K145T_Q179E
% H1L1 Pairing [7]: 84.7% | Change in % H1L1 Pairing with respect to wild type [7]: 36.3%

CR8071 heavy chain L143D_K145T (H1 of design 3971, system C)
% H1L1 Pairing [5]: 89% | Change in % H1L1 Pairing with respect to wild type [5]: 40.6%

Pertuzumab Fab heavy chain L124E_K145T
H2L2:H2L1 median scalar value [8]: 0.85 ln(ratio)

Pertuzumab Fab heavy chain L124E_K145T_Q179E_S186I_S188W (H2)
H2L2:H2L1 normalized median scalar value ln(r1/f1) [9]: 1.24 | H2L2:H2L1 normalized median scalar value ln(r1/f1) [10]: 0.9 | H2L2:H2L1 normalized median scalar value ln(r1/f1) [11]: 1.55

Pertuzumab Fab heavy chain L124E_S186I_S188W (H2)
H2L2:H2L1 normalized median scalar value ln(r1/f1) [12]: 0.65 | H2L2:H2L1 normalized median scalar value ln(r1/f1) [13]: 0.94 | H2L2:H2L1 normalized median scalar value ln(r1/f1) [14]: 1.03 | H2L2:H2L1 normalized median scalar value ln(r1/f1) [15]: 1.19

Pertuzumab Fab heavy chain L143I_S186K_V190F
H2L2:H2L1 median scalar value [16]: -0.49 ln(ratio)

Pertuzumab Fab heavy chain L143I_V190F (H2), ABD2-His6 tagged
H2L2:H2L1 normalized median ratio [17]: 46% | H2L2:H2L1 normalized median scalar value ln(r1/f1) [17]: -0.16 | H2L2:H2L1 normalized median ratio [18]: 49% | H2L2:H2L1 normalized median scalar value ln(r1/f1) [18]: -0.04 | H2L2:H2L1 normalized median ratio [19]: 62% | H2L2:H2L1 normalized median scalar value ln(r1/f1) [19]: 0.49 | H2L2:H2L1 normalized median ratio [20]: 38% | H2L2:H2L1 normalized median ratio [21]: 65% | H2L2:H2L1 normalized median scalar value ln(r1/f1) [21]: 0.62

Pertuzumab Fab heavy chain L143R (H2), ABD2-His6 tagged
H2L2:H2L1 normalized median ratio [22]: 79% | H2L2:H2L1 normalized median scalar value ln(r1/f1) [22]: 1.3 | H2L2:H2L1 normalized median ratio [23]: 86% | H2L2:H2L1 normalized median scalar value ln(r1/f1) [23]: 1.84 | H2L2:H2L1 normalized median ratio [24]: 82% | H2L2:H2L1 normalized median scalar value ln(r1/f1) [24]: 1.53 | H2L2:H2L1 normalized median ratio [25]: 21% | H2L2:H2L1 normalized median ratio [26]: 14%

Pertuzumab Fab heavy chain L143R_V190F
H2L2:H2L1 median scalar value [16]: 1.25 ln(ratio)

Pertuzumab Fab heavy chain Q179K (H2), ABD2-His6 tagged
H2L2:H2L1 normalized median ratio [27]: 91% | H2L2:H2L1 normalized median scalar value ln(r1/f1) [27]: 2.33 | H2L2:H2L1 normalized median ratio [28]: 96% | H2L2:H2L1 normalized median scalar value ln(r1/f1) [28]: 3.21 | H2L2:H2L1 normalized median ratio [29]: 87% | H2L2:H2L1 normalized median scalar value ln(r1/f1) [29]: 1.88 | H2L2:H2L1 normalized median ratio [25]: 9% | H2L2:H2L1 normalized median ratio [30]: 13% | H2L2:H2L1 normalized median ratio [26]: 4%

Pertuzumab Fab heavy chain S186I_S188W (H2), ABD2-His6 tagged
H2L2:H2L1 normalized median ratio [31]: 40% | H2L2:H2L1 normalized median scalar value ln(r1/f1) [31]: -0.39

Pertuzumab Fab heavy chain S186K_V190F
H2L2:H2L1 median scalar value [16]: -0.45 ln(ratio)

Pertuzumab Fab heavy chain S186L_S188W (H2), ABD2-His6 tagged
H2L2:H2L1 normalized median ratio [31]: 40% | H2L2:H2L1 normalized median scalar value ln(r1/f1) [31]: -0.39

Pertuzumab Fab heavy chain S186R (H2), ABD2-His6 tagged
H2L2:H2L1 normalized median ratio [27]: 96% | H2L2:H2L1 normalized median scalar value ln(r1/f1) [27]: 3.29 | H2L2:H2L1 normalized median ratio [28]: 97% | H2L2:H2L1 normalized median scalar value ln(r1/f1) [28]: 3.46 | H2L2:H2L1 normalized median ratio [29]: 89% | H2L2:H2L1 normalized median scalar value ln(r1/f1) [29]: 2.07 | H2L2:H2L1 normalized median ratio [25]: 4% | H2L2:H2L1 normalized median ratio [30]: 11%

Pertuzumab Fab, H2 S188K / L2 S176E_T178E
Kd [32]: 8.15 nM | Change in KD of H2L2 Fab vs wild type, -(log(KD design)-log(KD wt)) [33]: 0 log units

Pertuzumab designed Fab heterodimer H2L2: H2 L45P_L124E_K145T_Q179E / L2 P44F_S131R_V133G_S176R
Kd [34]: 5.8 nM

Pertuzumab designed Fab heterodimer H2L2: H2 L45P_L143E_K145T_Q179E / L2 P44F_Q124K_T178R
Kd [34]: 6 nM

Pertuzumab designed Fab heterodimer H2L2: H2 Q39E_L124E_K145T_Q179E / L2 Q38R_S131R_V133G_S176R
Change in KD of H2L2 Fab vs wild type [35]: -0.0084 | Kd [34]: 7.9 nM

Pertuzumab designed Fab heterodimer H2L2: H2 Q39E_L143E_K145T_Q179E / L2 Q38R_Q124K_T178R
Change in KD of H2L2 Fab vs wild type [35]: 0.023 | Kd [34]: 7.4 nM
